In article PMC8273888:

Experiments:
[1] = test system: [H][C@]12SCC(CSC(C(=O)O)c3ccccc3)=C(C(=O)O)N1C(=O)[C@H]2NC(=O)Cc1ccccc1; test: purified protein, by the assay type; conditions: pH 7.2, 25.0 °C
[2] = test system: [H][C@]12SCC(CS[C@H](Cc3ccccc3)C(=O)O)=C(C(=O)O)N1C(=O)[C@H]2NC(=O)Cc1ccccc1; test: purified protein, by the assay type; conditions: pH 7.2, 25.0 °C
[3] = other: compound as substrate of NDM-1
[4] = other: compound as substrate of VIM-2

NDM-1 (Klebsiella pneumoniae)
Km [1, 3]: 14.0 ± 2 µM
kcat [1, 3]: 13.1 s⁻¹
kcat/Km [1, 3]: 936000 M⁻¹ s⁻¹
Km [2, 3]: 21.2 ± 4 µM
kcat [2, 3]: 17.4 s⁻¹
kcat/Km [2, 3]: 821000 M⁻¹ s⁻¹

VIM-2 (Escherichia coli)
Km [1, 4]: 8.28 ± 2 µM
kcat [1, 4]: 4.06 s⁻¹
kcat/Km [1, 4]: 490000 M⁻¹ s⁻¹
Km [2, 4]: 4.30 ± 1 µM
kcat [2, 4]: 2.35 s⁻¹
kcat/Km [2, 4]: 546000 M⁻¹ s⁻¹
